Test results from patent publication US20020182172A1, “Water-soluble polymer conjugates of triazine derivatives” (Shearwater Corporation, priority 2000, published 2002).

Test: Stability study in D2O (formaldehyde release monitored by NMR; MALDI-TOF of hydrolyzed product)
Experimental: Compound III, V, and XIV (6 mg) were separately dissolved in 0.75 ml of D2O and stored at 37° C. The methylene peak disappearance as well as methyl peak shift were monitored by 300 MHz NMR over time. The half-life of the formaldehyde release reaction was monitored using first order kinetics.

Row | Substance | half-life (t1/2) of the formaldehyde release reaction | dimerization (MALDI-TOF spectrum of hydrolyzed compound) (after hydrolysis in D2O at 37° C.)
1 | 2-mPEGyloxy5k-4,6-di-(N-methyl-N-hydroxymethylamino)-1,3,5-triazine [Compound III] | 81 h | –
2 | 2-mPEGyloxy350-4,6-di-(N-methyl-N-hydroxymethylamino)-1,3,5-triazine [V] | 81 h | no detectable dimerization
